Results: patent publication US20220331363A1 (SHANGHAI GENBASE BIOTECHNOLOGY, published 2022)

Assays:
[1] = biological target: T1, human BCMA expressed on human multiple myeloma cells (U266, MM.1S, RPMI8226) (human, UniProt Q02223 1-184); experiment: flow cytometry (FACS) on U266 cells
T1 construct: whole, on cells; Endogenous BCMA on tumor cell lines; also called BCMA-expressing tumor cells; BCMA+ cell line
T1 sequence (looked up): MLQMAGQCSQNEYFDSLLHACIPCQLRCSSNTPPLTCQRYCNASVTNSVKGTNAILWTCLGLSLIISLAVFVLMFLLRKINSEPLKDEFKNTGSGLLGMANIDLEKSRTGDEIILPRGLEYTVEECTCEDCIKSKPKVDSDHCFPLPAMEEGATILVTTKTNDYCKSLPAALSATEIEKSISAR
Method: (§1) Cells (human myeloma cells expressing BCMA or tissue cells not expressing BCMA) were digested, and 500,000 cells were seeded in 50 μL of PBS containing 2% FBS (FACS buffer) in a U-bottom 96-well plate. The test samples were subjected to a 3-fold serial dilution by diluting ⅓ volume (100 μL) in 200 μL of FACS buffer, starting at a concentration of 300 μg/mL (final concentration). 50 μL of the diluted antibody was added to each well of the cell plate and incubated at 4° C. for 1 hour. After washing twice with FACS buffer, 100 μL of secondary antibody (Abcam ab97003, 5 μg/mL, diluted in FACS buffer) was added to each well, and incubated at 4° C. for 0.5 hours. After staining and washing twice with FACS buffer, 200 μL of FACS buffer was added to each well, and reading was performed on the machine (BD C6plus).

[2] = biological target: T1, human BCMA expressed on human multiple …; experiment: flow cytometry (FACS) on MM.1S cells
Method: as §1

[3] = biological target: T2, recombinant human BCMA protein (Sino Biological, 10620-H08H) (human, UniProt Q02223 1-54); experiment: ELISA, BCMA protein coated at 1 µg/mL, HRP anti-human secondary antibody
T2 construct: Bought protein, coated on the ELISA plate
T2 sequence (looked up): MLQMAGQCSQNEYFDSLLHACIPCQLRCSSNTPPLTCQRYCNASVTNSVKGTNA
Method: The binding activity of the antibodies to human BCMA protein was assessed using an ELISA method, and the antibody potency was compared using dose-dependent binding curves in ELISA.
BCMA protein (Sino Biological, 10620-H08H) was diluted to 1 μg/mL in PBS, 100 μL of the protein solution was added to each well of the ELISA plate and incubated at 4° C. overnight. The plate was washed 3 times in wash buffer (PBS, 0.05% Tween 20), and non-specific sites were blocked by adding 200 μl/w PBS+2% BSA blocking solution. C11D5.3-03, C11D5.3-04 or murine antibody C11D5.3 was added and incubated at 37° C. for 2 h. The plate was washed 3 times in wash buffer, and HRP-conjugated goat anti-human secondary antibody was added and incubated for 1 h at room temperature. The plate was washed 3 times in wash buffer, and the bound secondary antibody was detected by adding TMB (HRP substrate) and incubating the plate in the dark at room temperature for 5 to 10 minutes. The enzymatic reaction was stopped by adding 1M of sulfuric acid solution, and the light absorption at 450 nm was measured.

[4] = biological target: T1, human BCMA expressed on human multiple …; experiment: flow cytometry (FACS) on RPMI8226 cells
Method: as §1

[5] = biological target: human Burkitt's lymphoma cell Daudi; experiment: flow cytometry (FACS) on Daudi cells, which Example 3 says do not express BCMA
Method: as §1

B1: murine anti-BCMA antibody C11D5.3 (scFv), reference antibody (scFv, V domains shown)
VH: QIQLVQSGPELKKPGETVKISCKASGYTFTDYSINWVKRAPGKGLKWMGWINTETREPAYAYDFRGRFAFSLETSASTAYLQINNLKYEDTATYFCALDYSYAMDYWGQGTSVTVSS
VL: DIVLTQSPPSLAMSLGKRATISCRASESVTILGSHLIHWYQQKPGQPPTLLIQLASNVQTGVPARFSGSGSRTDFTLTIDPVEEDDVAVYYCLQSRTIPRTFGGGTKLEIK
Binder B1 has an EC50 [1] of 4.4 µg/mL, an EC50 [2] of 1.62 µg/mL and an EC50 [3] of 0.011 µg/mL. For the same binder, the EC50 [4] was 3.81 µg/mL.

B2: humanized anti-BCMA antibody C11D5.3-03 (scFv) (scFv, V domains shown)
VH: QIQLVQSGSELKKPGASVKVSCKASGYTFTDYSINWVRQAPGQGLEWMGWINTETREPAYAQGFTGRFVFSLDTSVSTAYLQISSLKAEDTAVYFCALDYSYAMDYWGQGTLVTVSS
VL: EIVLTQSPATLSMSLGERATLSCRASQSVTILGSHLIHWYQQKPGQPPRLLIQLASNVQTGIPARFSGSGSRTDFTLTISSLEEEDFAVYYCLQSRTIPRTFGGGTKVEIK
notes: For the soluble protein it states neither the domain order nor the linker
Work on B2 yielded an EC50 [1] of 7.57 µg/mL, an EC50 [5] of 36.3 µg/mL and an EC50 [2] of 0.81 µg/mL. It also gave an EC50 [3] of 0.011 µg/mL and an EC50 [4] of 2.25 µg/mL.

B3: humanized anti-BCMA antibody C11D5.3-04 (scFv) (scFv, V domains shown)
VH: QIQLVQSGSELKKPGASVKVSCKASGYTFTDYSMNWVRQAPGQGLEWMGWINTETREPTYAQGFTGRFVFSLDTSVSTAYLQISSLKAEDTAVYFCALDYSYAMDYWGQGTLVTVSS
VL: EIVLTQSPATLSMSLGERATLSCRASESVTILGSHLIHWYQQKPGQPPRLLIQLASNRATGIPARFSGSGSRTDFTLTISSLEEEDFAVYYCLQSRTIPRTFGGGTKVEIK
notes: as for B2
B3 was tested, and the EC50 [1] was 1.99 µg/mL, the EC50 [5] was 30.7 µg/mL and the EC50 [2] was 0.47 µg/mL. It also gave an EC50 [3] of 0.011 µg/mL and an EC50 [4] of 0.82 µg/mL.
